Results as given in US20200317768A1 (published 2020).

T1: cynomolgus monkey FcγRIIIaS extracellular domain with C-terminal His-tag (cynomolgus monkey, UniProt Q8SPW2 21-206 at identity 1.00))
T1 construct: Expressed in FreeStyle 293 cells and purified; also called cyno FcγRIIIaS; cynoFcγRIIIaS; not shown: C-terminal His-tag
T1 chain: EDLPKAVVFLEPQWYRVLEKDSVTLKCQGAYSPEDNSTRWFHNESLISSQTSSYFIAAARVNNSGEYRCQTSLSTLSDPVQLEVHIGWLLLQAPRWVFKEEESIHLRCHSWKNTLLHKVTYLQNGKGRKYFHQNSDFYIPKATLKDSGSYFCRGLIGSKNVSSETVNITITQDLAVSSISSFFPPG

T2: cynomolgus monkey FcγRIIa3 extracellular domain with C-terminal His-tag (cynomolgus monkey)
T2 construct: Expressed in FreeStyle 293 cells and purified; also called cyno FcγRIIa3; cynoFcgRIIa3; not shown: C-terminal His-tag
T2 chain: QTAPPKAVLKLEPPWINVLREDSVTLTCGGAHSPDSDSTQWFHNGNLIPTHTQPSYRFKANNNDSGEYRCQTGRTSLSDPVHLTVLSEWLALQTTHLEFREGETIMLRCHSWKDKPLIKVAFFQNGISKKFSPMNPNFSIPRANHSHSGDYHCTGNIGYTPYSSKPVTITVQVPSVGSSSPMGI

T3: human FcγRIIb extracellular domain with C-terminal His-tag (human, UniProt P31994 43-217)
T3 construct: Expressed in FreeStyle 293 cells and purified; also called humanFcgRIIb; not shown: C-terminal His-tag
T3 sequence: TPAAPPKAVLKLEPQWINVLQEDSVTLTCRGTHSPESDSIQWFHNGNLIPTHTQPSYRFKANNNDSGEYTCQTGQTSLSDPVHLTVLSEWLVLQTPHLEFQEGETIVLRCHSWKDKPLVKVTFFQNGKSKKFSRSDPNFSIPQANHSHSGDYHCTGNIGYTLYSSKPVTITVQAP

T4: human FcγRIIaH extracellular domain with C-terminal His-tag (human, UniProt P12318 34-217)
T4 construct: Expressed in FreeStyle 293 cells and purified; also called human FcγRIIa (type H); FcgRIIaH; not shown: C-terminal His-tag
T4 sequence: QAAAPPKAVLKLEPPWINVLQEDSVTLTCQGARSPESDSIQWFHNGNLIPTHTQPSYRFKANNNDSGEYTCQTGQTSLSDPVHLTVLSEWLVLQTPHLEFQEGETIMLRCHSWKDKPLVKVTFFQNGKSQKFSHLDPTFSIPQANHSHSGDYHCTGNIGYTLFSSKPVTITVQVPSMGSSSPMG

T5: cynomolgus monkey FcγRIIa1 extracellular domain with C-terminal His-tag (cynomolgus monkey)
T5 construct: Expressed in FreeStyle 293 cells and purified; also called cyno FcγRIIa1; cynoFcgRIIa1; not shown: C-terminal His-tag
T5 chain: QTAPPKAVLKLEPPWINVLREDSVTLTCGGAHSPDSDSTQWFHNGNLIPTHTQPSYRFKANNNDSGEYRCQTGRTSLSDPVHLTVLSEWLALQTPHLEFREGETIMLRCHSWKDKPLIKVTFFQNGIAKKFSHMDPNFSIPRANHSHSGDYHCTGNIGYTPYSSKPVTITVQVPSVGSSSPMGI

T6: human FcγRIIaR extracellular domain with C-terminal His-tag (human, UniProt P12318 34-217)
T6 construct: Expressed in FreeStyle 293 cells and purified; also called human FcγRIIa (type R); FcgRIIaR; not shown: C-terminal His-tag
T6 chain: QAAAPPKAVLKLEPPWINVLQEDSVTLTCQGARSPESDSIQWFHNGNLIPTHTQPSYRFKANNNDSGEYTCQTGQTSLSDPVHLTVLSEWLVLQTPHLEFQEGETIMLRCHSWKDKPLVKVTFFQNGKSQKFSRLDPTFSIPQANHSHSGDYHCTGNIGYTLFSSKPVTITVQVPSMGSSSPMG

T7: cynomolgus monkey FcγRIIa2 extracellular domain with C-terminal His-tag (cynomolgus monkey)
T7 construct: Expressed in FreeStyle 293 cells and purified; also called cyno FcγRIIa2; cynoFcgRIIa2; not shown: C-terminal His-tag
T7 chain: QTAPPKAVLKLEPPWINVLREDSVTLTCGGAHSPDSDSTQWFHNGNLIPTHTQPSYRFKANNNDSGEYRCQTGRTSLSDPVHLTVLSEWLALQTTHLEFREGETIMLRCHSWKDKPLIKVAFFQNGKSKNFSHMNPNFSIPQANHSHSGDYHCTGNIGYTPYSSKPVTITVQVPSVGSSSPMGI


How the values were obtained:
Assay in all cases: SPR (Biacore); KD of SG1 divided by KD of the variant for this FcgR;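 also: relative to parent M103205H795-SG1 carrying the SG1 human heavy chain constant region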
[1] = target: T1, cynomolgus monkey FcγRIIIaS …
[2] = target: T8, human FcγRIIIaV extracellular domain with C-terminal His-tag (human, UniProt P08637 17-208)
T8 construct: Expressed in FreeStyle 293 cells and purified; also called FcgRIIIaV; not shown: C-terminal His-tag

[3] = target: T2, cynomolgus monkey FcγRIIa3 …
[4] = target: T3, human FcγRIIb extracellular domain with …
[5] = target: T4, human FcγRIIaH extracellular domain …
[6] = target: T5, cynomolgus monkey FcγRIIa1 …
[7] = target: T6, human FcγRIIaR extracellular domain …
[8] = target: T7, cynomolgus monkey FcγRIIa2 …

T8 sequence (P08637 17-208 F176V): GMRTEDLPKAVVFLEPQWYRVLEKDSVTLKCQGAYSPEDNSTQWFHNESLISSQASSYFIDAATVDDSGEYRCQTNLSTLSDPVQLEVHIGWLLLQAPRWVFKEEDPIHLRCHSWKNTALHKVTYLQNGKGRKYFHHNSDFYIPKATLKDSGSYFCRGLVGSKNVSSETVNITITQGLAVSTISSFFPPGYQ

Row | KD fold (SG1 = 1) [1] [fold] | KD fold (SG1 = 1) [2] [fold] | KD fold (SG1 = 1) [3] [fold] | KD fold (SG1 = 1) [4] [fold] | KD fold (SG1 = 1) [5] [fold] | KD fold (SG1 = 1) [6] [fold] | KD fold (SG1 = 1) [7] [fold] | KD fold (SG1 = 1) [8] [fold] | Binder
1 | 0.1 | 0.11 | 2 | 4.2 | 0.6 | 1.5 | 0.5 | 2.5 | M103205H795-MY183 / M103202L889-SK1 (antibody, human IgG1, kappa, Position 396 variant derived from MY052, expressed with M103202L889-SK1 as light chain) heavy: QVTLKESGPVLVKPTETLTLTCTVSGIDLSHDDISWVRQAPGKGLEWVGIISYAGSTYYASWAKGRLTISKDTSKNQVVLTMTNMDPVDTATYYCARGVPAYSHGGDLWGQGTLVTVSSASTKGPSVFPLAPSSKSTSGGTAALGCLVKDYFPEPVTVSWNSGALTSGVHTFPAVLQSSGLYSLSSVVTVPSSSLGTQTYICNVNHKPSNTKVDKKVEPKSCDKTHTCPPCPAPELLNGPSVFLFPPKPKDTLMISRTPEVTCVVVDVSEEDPEVKFNWYVDGVEVHNAKTKPREEQYNSTYRVVSVLTVLHQDWLNGKEYKCKVSNKALPAPIEKTISKAKGQPREPQVYTLPPSREEMTKNQVSLTCLVKGFYPSDIAVEWESNGQPENNYKTTPWVLDSDGSFFLYSKLTVDKSRWQQGNVFSCSVMHEALHNHYTQKSLSLSP light: DIVMTQSPATLSLSPGERATLSCTSSQSVYHANWLSWFQQKPGQPPKLLIYWASTLAYGVPSRFSGSGSGTDFTLTISSLQPEDAATYYCAGGYGGGRYAFGQGTKVEIKRTVAAPSVFIFPPSDEQLKSGTASVVCLLNNFYPREAKVQWKVDNALQSGNSQESVTEQDSKDSTYSLSSTLTLSKADYEKHKVYACEVTHQGLSSPVTKSFNRGEC
2 | 0.11 | 0.12 | 2 | 4.2 | 0.6 | 1.7 | 0.6 | 2.6 | M103205H795-MY184 / M103202L889-SK1 (antibody, human IgG1, kappa, Position 396 variant derived from MY052, expressed with M103202L889-SK1 as light chain) heavy: QVTLKESGPVLVKPTETLTLTCTVSGIDLSHDDISWVRQAPGKGLEWVGIISYAGSTYYASWAKGRLTISKDTSKNQVVLTMTNMDPVDTATYYCARGVPAYSHGGDLWGQGTLVTVSSASTKGPSVFPLAPSSKSTSGGTAALGCLVKDYFPEPVTVSWNSGALTSGVHTFPAVLQSSGLYSLSSVVTVPSSSLGTQTYICNVNHKPSNTKVDKKVEPKSCDKTHTCPPCPAPELLNGPSVFLFPPKPKDTLMISRTPEVTCVVVDVSEEDPEVKFNWYVDGVEVHNAKTKPREEQYNSTYRVVSVLTVLHQDWLNGKEYKCKVSNKALPAPIEKTISKAKGQPREPQVYTLPPSREEMTKNQVSLTCLVKGFYPSDIAVEWESNGQPENNYKTTPYVLDSDGSFFLYSKLTVDKSRWQQGNVFSCSVMHEALHNHYTQKSLSLSP light: DIVMTQSPATLSLSPGERATLSCTSSQSVYHANWLSWFQQKPGQPPKLLIYWASTLAYGVPSRFSGSGSGTDFTLTISSLQPEDAATYYCAGGYGGGRYAFGQGTKVEIKRTVAAPSVFIFPPSDEQLKSGTASVVCLLNNFYPREAKVQWKVDNALQSGNSQESVTEQDSKDSTYSLSSTLTLSKADYEKHKVYACEVTHQGLSSPVTKSFNRGEC
